Measured values from patent publication US11130793B2, “GLP-1/GLP-2 dual agonists” (Zealand Pharma A/S, priority 2016, dated 2021).
Square brackets hold non-standard residues; d marks the D form. Aib = CC(C)(N)C(=O)O

T1: human GLP-2 receptor (hGLP2-R) (human, UniProt O95838)
T1 sequence: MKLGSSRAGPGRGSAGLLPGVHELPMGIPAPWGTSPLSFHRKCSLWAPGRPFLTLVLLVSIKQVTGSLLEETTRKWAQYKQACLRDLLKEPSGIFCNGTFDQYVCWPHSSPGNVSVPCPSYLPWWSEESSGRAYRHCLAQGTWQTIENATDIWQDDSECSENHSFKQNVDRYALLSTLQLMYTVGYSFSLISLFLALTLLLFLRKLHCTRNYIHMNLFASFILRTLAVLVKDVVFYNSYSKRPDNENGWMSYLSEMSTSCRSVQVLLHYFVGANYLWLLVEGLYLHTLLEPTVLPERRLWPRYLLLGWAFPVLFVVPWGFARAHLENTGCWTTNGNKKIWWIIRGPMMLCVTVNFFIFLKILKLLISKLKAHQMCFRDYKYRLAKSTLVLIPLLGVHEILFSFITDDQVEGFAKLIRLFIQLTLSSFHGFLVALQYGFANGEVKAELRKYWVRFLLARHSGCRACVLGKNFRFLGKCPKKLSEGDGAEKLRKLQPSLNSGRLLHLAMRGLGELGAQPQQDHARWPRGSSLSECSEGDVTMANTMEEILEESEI

B1: Compound 39 (peptide)
peptide: H-H[Aib]EGTFSSELSTILEEQASREFIAWLIAHKITE-OH
SMILES: CC[C@H](C)[C@H](NC(=O)[C@H](CC(C)C)NC(=O)[C@H](Cc1c[nH]c2ccccc12)NC(=O)[C@H](C)NC(=O)[C@@H](NC(=O)[C@H](Cc1ccccc1)NC(=O)[C@H](CCC(=O)O)NC(=O)[C@H](CCCNC(=N)N)NC(=O)[C@H](CO)NC(=O)[C@H](C)NC(=O)[C@H](CCC(N)=O)NC(=O)[C@H](CCC(=O)O)NC(=O)[C@H](CCC(=O)O)NC(=O)[C@H](CC(C)C)NC(=O)[C@@H](NC(=O)[C@@H](NC(=O)[C@H](CO)NC(=O)[C@H](CC(C)C)NC(=O)[C@H](CCC(=O)O)NC(=O)[C@H](CO)NC(=O)[C@H](CO)NC(=O)[C@H](Cc1ccccc1)NC(=O)[C@@H](NC(=O)CNC(=O)[C@H](CCC(=O)O)NC(=O)C(C)(C)NC(=O)[C@@H](N)Cc1c[nH]cn1)[C@@H](C)O)[C@@H](C)O)[C@@H](C)CC)[C@@H](C)CC)C(=O)N[C@@H](C)C(=O)N[C@@H](Cc1c[nH]cn1)C(=O)N[C@@H](CCCCN)C(=O)N[C@H](C(=O)N[C@H](C(=O)N[C@@H](CCC(=O)O)C(=O)O)[C@@H](C)O)[C@@H](C)CC
B2: Compound 37 (peptide)
peptide: H-H[Aib]EGTFTSELATILDEQAARDFINWLKEQKITD-OH
SMILES: CC[C@H](C)[C@H](NC(=O)[C@H](Cc1ccccc1)NC(=O)[C@H](CC(=O)O)NC(=O)[C@H](CCCNC(=N)N)NC(=O)[C@H](C)NC(=O)[C@H](C)NC(=O)[C@H](CCC(N)=O)NC(=O)[C@H](CCC(=O)O)NC(=O)[C@H](CC(=O)O)NC(=O)[C@H](CC(C)C)NC(=O)[C@@H](NC(=O)[C@@H](NC(=O)[C@H](C)NC(=O)[C@H](CC(C)C)NC(=O)[C@H](CCC(=O)O)NC(=O)[C@H](CO)NC(=O)[C@@H](NC(=O)[C@H](Cc1ccccc1)NC(=O)[C@@H](NC(=O)CNC(=O)[C@H](CCC(=O)O)NC(=O)C(C)(C)NC(=O)[C@@H](N)Cc1c[nH]cn1)[C@@H](C)O)[C@@H](C)O)[C@@H](C)O)[C@@H](C)CC)C(=O)N[C@@H](CC(N)=O)C(=O)N[C@@H](Cc1c[nH]c2ccccc12)C(=O)N[C@@H](CC(C)C)C(=O)N[C@@H](CCCCN)C(=O)N[C@@H](CCC(=O)O)C(=O)N[C@@H](CCC(N)=O)C(=O)N[C@@H](CCCCN)C(=O)N[C@H](C(=O)N[C@H](C(=O)N[C@@H](CC(=O)O)C(=O)O)[C@@H](C)O)[C@@H](C)CC
B3: Compound 36 (peptide)
peptide: H-H[Aib]EGTFTSELATILDEQAARDFINWLKSYKITD-OH
SMILES: CC[C@H](C)[C@H](NC(=O)[C@H](Cc1ccccc1)NC(=O)[C@H](CC(=O)O)NC(=O)[C@H](CCCNC(=N)N)NC(=O)[C@H](C)NC(=O)[C@H](C)NC(=O)[C@H](CCC(N)=O)NC(=O)[C@H](CCC(=O)O)NC(=O)[C@H](CC(=O)O)NC(=O)[C@H](CC(C)C)NC(=O)[C@@H](NC(=O)[C@@H](NC(=O)[C@H](C)NC(=O)[C@H](CC(C)C)NC(=O)[C@H](CCC(=O)O)NC(=O)[C@H](CO)NC(=O)[C@@H](NC(=O)[C@H](Cc1ccccc1)NC(=O)[C@@H](NC(=O)CNC(=O)[C@H](CCC(=O)O)NC(=O)C(C)(C)NC(=O)[C@@H](N)Cc1c[nH]cn1)[C@@H](C)O)[C@@H](C)O)[C@@H](C)O)[C@@H](C)CC)C(=O)N[C@@H](CC(N)=O)C(=O)N[C@@H](Cc1c[nH]c2ccccc12)C(=O)N[C@@H](CC(C)C)C(=O)N[C@@H](CCCCN)C(=O)N[C@@H](CO)C(=O)N[C@@H](Cc1ccc(O)cc1)C(=O)N[C@@H](CCCCN)C(=O)N[C@H](C(=O)N[C@H](C(=O)N[C@@H](CC(=O)O)C(=O)O)[C@@H](C)O)[C@@H](C)CC
B4: Compound 35 (peptide)
peptide: H-H[Aib]EGTFTSELATILDEQAARDFINWLKAHKITD-OH
SMILES: CC[C@H](C)[C@H](NC(=O)[C@H](Cc1ccccc1)NC(=O)[C@H](CC(=O)O)NC(=O)[C@H](CCCNC(=N)N)NC(=O)[C@H](C)NC(=O)[C@H](C)NC(=O)[C@H](CCC(N)=O)NC(=O)[C@H](CCC(=O)O)NC(=O)[C@H](CC(=O)O)NC(=O)[C@H](CC(C)C)NC(=O)[C@@H](NC(=O)[C@@H](NC(=O)[C@H](C)NC(=O)[C@H](CC(C)C)NC(=O)[C@H](CCC(=O)O)NC(=O)[C@H](CO)NC(=O)[C@@H](NC(=O)[C@H](Cc1ccccc1)NC(=O)[C@@H](NC(=O)CNC(=O)[C@H](CCC(=O)O)NC(=O)C(C)(C)NC(=O)[C@@H](N)Cc1c[nH]cn1)[C@@H](C)O)[C@@H](C)O)[C@@H](C)O)[C@@H](C)CC)C(=O)N[C@@H](CC(N)=O)C(=O)N[C@@H](Cc1c[nH]c2ccccc12)C(=O)N[C@@H](CC(C)C)C(=O)N[C@@H](CCCCN)C(=O)N[C@@H](C)C(=O)N[C@@H](Cc1c[nH]cn1)C(=O)N[C@@H](CCCCN)C(=O)N[C@H](C(=O)N[C@H](C(=O)N[C@@H](CC(=O)O)C(=O)O)[C@@H](C)O)[C@@H](C)CC
B5: Compound 33 (peptide)
peptide: H-H[Aib]EGTFTSELATILDEQAARDFINWLIAHKITD-OH
SMILES: CC[C@H](C)[C@H](NC(=O)[C@H](CC(C)C)NC(=O)[C@H](Cc1c[nH]c2ccccc12)NC(=O)[C@H](CC(N)=O)NC(=O)[C@@H](NC(=O)[C@H](Cc1ccccc1)NC(=O)[C@H](CC(=O)O)NC(=O)[C@H](CCCNC(=N)N)NC(=O)[C@H](C)NC(=O)[C@H](C)NC(=O)[C@H](CCC(N)=O)NC(=O)[C@H](CCC(=O)O)NC(=O)[C@H](CC(=O)O)NC(=O)[C@H](CC(C)C)NC(=O)[C@@H](NC(=O)[C@@H](NC(=O)[C@H](C)NC(=O)[C@H](CC(C)C)NC(=O)[C@H](CCC(=O)O)NC(=O)[C@H](CO)NC(=O)[C@@H](NC(=O)[C@H](Cc1ccccc1)NC(=O)[C@@H](NC(=O)CNC(=O)[C@H](CCC(=O)O)NC(=O)C(C)(C)NC(=O)[C@@H](N)Cc1c[nH]cn1)[C@@H](C)O)[C@@H](C)O)[C@@H](C)O)[C@@H](C)CC)[C@@H](C)CC)C(=O)N[C@@H](C)C(=O)N[C@@H](Cc1c[nH]cn1)C(=O)N[C@@H](CCCCN)C(=O)N[C@H](C(=O)N[C@H](C(=O)N[C@@H](CC(=O)O)C(=O)O)[C@@H](C)O)[C@@H](C)CC
B6: Compound 2 (peptide)
peptide: H-H[Aib]EGTFSSELATILDEQAARDFIAWLIAHKITD-OH
SMILES: CC[C@H](C)[C@H](NC(=O)[C@H](CC(C)C)NC(=O)[C@H](Cc1c[nH]c2ccccc12)NC(=O)[C@H](C)NC(=O)[C@@H](NC(=O)[C@H](Cc1ccccc1)NC(=O)[C@H](CC(=O)O)NC(=O)[C@H](CCCNC(=N)N)NC(=O)[C@H](C)NC(=O)[C@H](C)NC(=O)[C@H](CCC(N)=O)NC(=O)[C@H](CCC(=O)O)NC(=O)[C@H](CC(=O)O)NC(=O)[C@H](CC(C)C)NC(=O)[C@@H](NC(=O)[C@@H](NC(=O)[C@H](C)NC(=O)[C@H](CC(C)C)NC(=O)[C@H](CCC(=O)O)NC(=O)[C@H](CO)NC(=O)[C@H](CO)NC(=O)[C@H](Cc1ccccc1)NC(=O)[C@@H](NC(=O)CNC(=O)[C@H](CCC(=O)O)NC(=O)C(C)(C)NC(=O)[C@@H](N)Cc1c[nH]cn1)[C@@H](C)O)[C@@H](C)O)[C@@H](C)CC)[C@@H](C)CC)C(=O)N[C@@H](C)C(=O)N[C@@H](Cc1c[nH]cn1)C(=O)N[C@@H](CCCCN)C(=O)N[C@H](C(=O)N[C@H](C(=O)N[C@@H](CC(=O)O)C(=O)O)[C@@H](C)O)[C@@H](C)CC
B7: Compound 34 (peptide)
peptide: H-H[Aib]EGTFTSELATILDEQAARDFISWLIAHKITD-OH
SMILES: CC[C@H](C)[C@H](NC(=O)[C@H](CC(C)C)NC(=O)[C@H](Cc1c[nH]c2ccccc12)NC(=O)[C@H](CO)NC(=O)[C@@H](NC(=O)[C@H](Cc1ccccc1)NC(=O)[C@H](CC(=O)O)NC(=O)[C@H](CCCNC(=N)N)NC(=O)[C@H](C)NC(=O)[C@H](C)NC(=O)[C@H](CCC(N)=O)NC(=O)[C@H](CCC(=O)O)NC(=O)[C@H](CC(=O)O)NC(=O)[C@H](CC(C)C)NC(=O)[C@@H](NC(=O)[C@@H](NC(=O)[C@H](C)NC(=O)[C@H](CC(C)C)NC(=O)[C@H](CCC(=O)O)NC(=O)[C@H](CO)NC(=O)[C@@H](NC(=O)[C@H](Cc1ccccc1)NC(=O)[C@@H](NC(=O)CNC(=O)[C@H](CCC(=O)O)NC(=O)C(C)(C)NC(=O)[C@@H](N)Cc1c[nH]cn1)[C@@H](C)O)[C@@H](C)O)[C@@H](C)O)[C@@H](C)CC)[C@@H](C)CC)C(=O)N[C@@H](C)C(=O)N[C@@H](Cc1c[nH]cn1)C(=O)N[C@@H](CCCCN)C(=O)N[C@H](C(=O)N[C@H](C(=O)N[C@@H](CC(=O)O)C(=O)O)[C@@H](C)O)[C@@H](C)CC

Columns and labels:
[1] = target: T1, human GLP-2 receptor (hGLP2-R); assay: cell-based or functional assay
[2] = target: human glucagon-like peptide 1 receptor (GLP-1R) (human, UniProt P43220); assay: cell-based or functional assay

Binder	EC50 GLP-2 (nM); cAMP AlphaScreen [1]	EC50 GLP-1 (nM); cAMP AlphaScreen [2]
B1	0.96 nM	0.03 nM
B2	0.16 nM	0.007 nM
B3	0.11 nM	0.007 nM
H-HGEGTFTSELATILDEQAARDFIAWLIAHKITD-OH [Compound 38]	0.043 nM	0.008 nM
B4	0.048 nM	0.006 nM
B5	0.041 nM	0.004 nM
B6	0.034 nM	0.046 nM
B7	0.049 nM	0.005 nM
H-HGEGSFSSELATILDEQAARDFIAWLIQHKITD-NH2 [Compound 40]	0.05 nM	1.4 nM
